Laboratory results from patent US20120282271A1 (Genentech, published 2012).

Molecular target: T1, Ron (Sema IPT1)-IgG fusion protein (human, UniProt Q04912 25-683, limits assumed)
T1 construct: domain: Sema IPT1; Captured on the chip or plate through an anti-human IgG (Fc specific) antibody; also called Ron-Fc; human Ron; not shown: IgG (Fc) portion, captured by rabbit anti-human IgG Fc antibody
T1 sequence (looked up): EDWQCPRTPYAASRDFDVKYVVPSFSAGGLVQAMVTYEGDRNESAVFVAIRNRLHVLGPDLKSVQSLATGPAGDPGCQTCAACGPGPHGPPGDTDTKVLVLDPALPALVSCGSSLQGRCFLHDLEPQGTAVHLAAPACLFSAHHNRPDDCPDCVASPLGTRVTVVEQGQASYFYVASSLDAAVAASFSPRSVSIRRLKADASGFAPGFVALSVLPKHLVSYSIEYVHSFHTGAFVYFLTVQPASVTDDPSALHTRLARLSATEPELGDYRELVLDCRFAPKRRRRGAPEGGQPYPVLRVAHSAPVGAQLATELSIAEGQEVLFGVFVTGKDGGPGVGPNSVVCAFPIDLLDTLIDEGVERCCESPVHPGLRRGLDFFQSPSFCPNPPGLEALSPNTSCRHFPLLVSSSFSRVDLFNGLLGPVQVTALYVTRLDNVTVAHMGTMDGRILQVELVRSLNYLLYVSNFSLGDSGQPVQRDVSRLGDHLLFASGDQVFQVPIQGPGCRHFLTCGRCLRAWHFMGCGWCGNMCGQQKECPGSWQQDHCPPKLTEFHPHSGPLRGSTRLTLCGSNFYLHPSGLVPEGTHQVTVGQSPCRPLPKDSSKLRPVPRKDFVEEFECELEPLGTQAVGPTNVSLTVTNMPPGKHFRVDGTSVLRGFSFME
Assay: ELISA, Ron (Sema IPT1)-IgG captured on an anti-human IgG Fc coated plate, His tagged MSP detected with anti-His-HRP, four parameter fit; ELISA, not SPR; printed only as 'MSP'
Method: To determine binding affinity of hepsin-activated MSP to human Ron, surface plasmon resonance measurements on a BIAcore™-3000 instrument (GE Health Care, NJ) were performed. Rabbit anti-human IgG were chemically immobilized (amine coupling) on CM5 biosensor chips and the Ron (Sema IPT1)-IgG fusion protein was captured to give approximately 250 response units (RU). For kinetics measurements, different concentration of either hepsin-activated MSP or a commercially available MSP (R&D systems) were injected in HBS-P buffer at 25° C. with a flow rate of 30 μl/min. Association rates (kₒₙ) and dissociation rates (koff) were obtained by using a simple one-to-one Langmuir binding model (BIA-Evaluation) and the equilibrium dissociation constants (KD) were calculated (koff/kₒₙ). […] Bound MSP was detected using anti-His-HRP (Qiagen, Valencia, Calif.) followed by addition of TMB/H₂O₂ substrate (KPL, Gaithersburg, Md.). The reaction was stopped with 1M H₃PO₄ and the A₄₅₀ was measured on a Molecular Devices (Sunnyvale, Calif.) SpectraMax Plus³⁸⁴ microplate reader. The effective concentration to give half-maximal binding (EC₅₀) was determined by a four parameter fit using Kaleidagraph (Synergy Software, Reading, Pa.). […]

B1: hepsin-activated MSP (recombinant human macrophage-stimulating protein, C672A, cleaved by hepsin at Arg483-Val484) (ligand)
chain 1: QRSPLNDFQVLRGTELQHLLHAVVPGPWQEDVADAEECAGRCGPLMDCRAFHYNVSSHGCQLLPWTQHSPHTRLRRSGRCDLFQKKDYVRTCIMNNGVGYRGTMATTVGGLPCQAWSHKFPNDHKYTPTLRNGLEENFCRNPDGDPGGPWCYTTDPAVRFQSCGIKSCREAACVWCNGEEYRGAVDRTESGRECQRWDLQHPHQHPFEPGKFLDQGLDDNYCRNPDGSERPWCYTTDPQIEREFCDLPRCGSEAQPRQEATTVSCFRGKGEGYRGTANTTTAGVPCQRWDAQIPHQHRFTPEKYACKDLRENFCRNPDGSEAPWCFTLRPGMRAAFCYQIRRCTDDVRPQDCYHGAGEQYRGTVSKTRKGVQCQRWSAETPHKPQFTFTSEPHAQLEENFCRNPDGDSHGPWCYTMDPRTPFDYCALRRCADDQPPSILDPPDQVQFEKCGKRVDRLDQRRSKLR
chain 2: VVGGHPGNSPWTVSLRNRQGQHFCGGSLVKEQWILTARQCFSSCHMPLTGYEVWLGTLFQNPQHGEPSLQRVPVAKMVCGPSGSQLVLLKLERSVTLNQRVALICLPPEWYVVPPGTKCEIAGWGETKGTGNDTVLNVALLNVISNQECNIKHRGRVRESEMCTEGLLAPVGACEGDYGGPLACFTHNAWVLEGIIIPNRVCARSRWPAVFTRVSVFVDWIHKVMRLG
notes: Made by treating recombinant pro-MSP (C672A, from CHO cells) with the recombinant hepsin extracellular domain; It is a disulfide-linked α/β heterodimer; also called hepsin-treated pro-MSP
Work on B1 yielded an EC50 of 0.519 nM.
